# Assay: soluble on expression in E. coli; label from the status in PepcDB or PDB records
row,Sequence,soluble on expression in E. coli
1,SSAKSAISKEIFAPLDERMLGAVQVKRRTKKKIPFLATGGQGEYLTYICLSVTNKKPTQASITKVKQFEGSTSFVRRSQWMLEQLRQVNGIDPNGDSAEFDLLFENAFDQWVASTASEKCTFFQILHHTCQRYLTDRKPEFINCQSKIMGGNSILHSAADSVTSAVQKASQALNERGERLGRAEEKTEDLKNSAQQFAETAHKLAMKHKC,soluble
2,MGSDKIHHHHHHLGRRGTADDEILLTYCPTLFIVGAEGRRFNNEAITELRTSMISPSGLVVVGHSNDMILVPTSMLLRLGISQTVVFRMVLEKILDFLNLEPVRQQEFADLVPIELNNVFDLDSALLKSDKALSGLAFASSTHSASSSAAPSPVGASGRRATVTGAGSEDIAKRRKESIILSQQIAAPSISGPPPPAPSPRTEDRFLAFQNLVASTITTGDDMPRRASMGASPRVIERGDFRDHRPPPPPPLPILQNPVATPMSQQPPLPSPAPPPPRGPVDPASISLI,not soluble
3,MGSDKIHHHHHHMMSNTAATVNHSQKVDLFIVGGGMIGSALAARLAPSGMRIALLENHQPAAFDPSSPPDLRVSALSPASIDFLEQAQAWPAIQTMRTAPFKRMQVWENRQDHGTMFDAAEVDAPWLGHIVENRLVQLACLEIVEGYDNVTLLCPGEIGQIAYRPEGSHIRLNSGQIFEATLLIGADGANSQVRKAAGIALDSQQYPMHALVATVAIQGGERDITWQRFTPDGPQSLLPLPGDYASLVWYHRPSEVRRLLTLDDDALLDAFRQHFPAVLPEITGLVRRGSFPLARSHAQAYVRPGVALIGDAAHTIHPLAGQGVNLGFQDAAVLSETLLRAWQTGADLAALPHLQRYERQRKLANLVMQRAMDAFSYGFSNDVAPLRLLRNLGLRFADHTGPIKRQVIRYALGLGPQPSLPLPSGLSKLLP,not soluble
4,MSLKYLVIGSNSFTGASMVSYLLDQGADVVGISRSDEPHPAFLPYRWKKADRFRFQKLDLNHDLDAIMQLVTAERFPCIINFAAQSMVGESWANPDHWFMTNVVSTVRLHERLRICDFLERYVHVTTPEVYGNATGTLTEDAVFDPSTPYAVSRAAGDMSLRSYFRAYGFPVLFTRAANVYGPGQRLYRIVPRTILFIKLGRKLQLHGGGTSERSFIHAADVADATRRIACNGKLGDSYHISTDRIVTIRALVEMICAMMRVRFEDQVEIVGERLGKDAAYKLDSSKLRSELGWSDQITLEQGIEQTIAWIDRWFEELKSQPFDYAHKEGHHHHHH,not soluble
5,MGSDKIHHHHHHMASKEEQYAAFYQFLETLDCYLTTTNALENEVAQFKENPHREIAGFMLASSETIDVPKGFIRMLYCLEQDGYAYLDQQRCSFSAGQVMIVNEATSVSYQGQGMSMIIFYFKKHYFLDTLLNQLAEEPVMYRFFTEIASSEFENIPRYFVFASQPNSDVHVYSLLLLKQIVKMAYFNNKVTKAAFVLLVVELGQLPREALKMQDNYLSNHQRVEVILAYIEQQIAHVTLAEVAAKFHFHPNYLSNFLKEKTNKTFTEIVLAYRIQLAKNYLKQTDLSIQTIVERIGYQDKAFFYKRFKEEMGMTPKQYRQKEGMADVRRSL,not soluble
6,MGSDKIHHHHHHMTIAIIIATHGVAAEQLLKTTEMLIGEQENVATIDFVPGENAETIMEKYQAKLSGDLAHCDKVLFLVDTWGGSPFNAANRVSEGKDNMDIVTGVNVPMLVETFMARDDGPSLDELVAIALETGRTGVRALRYQEPETEPTAPTSEVPAQPAASQAEPQPAMVTPNQEGHLEIGLARIDDRLIHGQVATRWTKESRVSRIVVVSDEVAKDTVRATMLKSVAPPGVTAHVVNVDKMVRVYNNPEYAGERMMLLFTNPTDVLRLSDAGVDFKSINVGGMAYRDGKKMITNAVSVDDKDIAAFKALDAKGIELDVRKVSNDNRQYMMDLLKKNNLL,not soluble
7,MSRYNWNVPILEVLKEAVMVKKLNKIAVVGTPCVINAVYQMMATNNDLVEPFKKAIRLKISLFCFETFDYDKMLKKLKEVEVNPWDIKKMEIDKGKLIVSTIHGNVFNFKIDEMDEYVRKGCKVCRDFTGISSDISVGNVGTPEGYSTVLVRNKWGKGFFDRAVINGYVSVEGEASIDPVISLSKKKMERKDIEFLEHHHHHH,soluble
8,MIRILLSNDDGISAPGIQTLASALRGFAQVQIVAPDRNRSGASNALTLDSALRITTLSNGDIAVQQGTPTDCVYLGVNALMRPRPDIVVSGINAGPNLGDDVIYSGTVAAAMEGRHLGYPALAVSLNGHQHYDTAAAVTCRLLRALQRKPLRTGKILNINVPDLPLAEIKGIRVTRCGSRHPAEQVFCQQDPRGQDLYWIGPPGEKYDAGPDTDFAAVEQGYVSITPLQVDLTAYMAQEVVESWLANTEVDGEW,not soluble
9,GHMEELNIDFDVFKKRIELLYSKYNEFEGSPNSLLFVLGSSNAENPYQKTTILHNWLLSYEFPATLIALVPGKVIIITSSAKAKHLQKAIDLFKDPESKITLELWQRNNKEPELNKKLFDDVIALINSAGKTVGIPEKDSYQGKFMTEWNPVWEAAVKENEFNVIDISLGLSKVWEVKDVNEQAFLSVSSKGSDKFMDLLSNEMVRAVDEELKITNAKLSDKIENKIDDVKFLKQLSPDLSALCPPNYKFNFDLLDWTYSPIIQSGKKFDLRVSARSTNDQLYGNGCILASCGIRYNNYCSNITRTFLIDPSEEMANNYDFLLTLQKEIVTNILKPGRTPKEVYESVIEYIEKTKPELVPNFTKNIGSLIGLEFRDSNFILNVKNDYRKIQRGDCFNISFGFNNLKDSQSANNYALQLADTVQIPLDETEPPRFLTNYTKAKSQISFYFNNEEEDNNKKKSSPATKV,soluble
10,MGSDKIHHHHHHMKIGTYQRLKAIKFLDFGVYLLEELTQEEVLLPKRYVPEGLEMGAMLEVFLYTDSEDRPVATTLKPKAILGEVAALEVVSVSERGCYLDLGIAKDIFMPCKNPYSFHEGQKVVVRLDLDKEKRLIARIGVKNYLQNAPVTLRPFTEVEILPFEWSTLGYGCMVNGRYFGMLFNNETFEKLPLGEARKGYIKAVRPDGKIDLSLRKSQGAGGLKEELEKLMKALQSAGGKLELHYDSDPDEISKITGLSKKGFKRALGEAIRSQKVELVAGKGIEQIR,not soluble
11,MSSSPSLPSSASVPAAFDRAPVSGLPDNAIEIDALRKVYGGGKVALESLSLAIPRGSFFGLLGPNGAGKSTLINIMAGLVRKTSGRVRIWGNDIDTDERAARCAIGIVPQELSFDPFFTPREMLDVQAGLYGVPKAERRTLEILRAVGLEDKADAYSRTLSGGMRRRLLVAKAMVHSPPILVLDEPTAGVDIELRQQLWAYVRDLNARGTTVLLTTHYLEEAEELCDRIAIIDHGKVVVSEPTTTLLGRLDNKSLTLRLAQPLDAPPPALAALGAELRDPYHLVITYHPSSLPMARILDAARAGGLTIADLTTREADLEDVFLRLTSSHHRAQEIGLEHHHHHH,soluble
12,MSKNRDPLLANLNAFKSKVKSAPVIAPAKVGQKKTNDTVITIDGNTRKRTASERAQENTLNSAKNPVLVDIKKEAGSNSSNAISLDDDDDDEDFGSSPSKKVRPGSIAAAALQANQTDISKSHDSSKLLWATEYIQKKGKPVLVNELLDYLSMKKDDKVIELLKKLDRIEFDPKKGTFKYLSTYDVHSPSELLKLLRSQVTFKGISCKDLKDGWPQCDETINQLEEDSKILVLRTKKDKTPRYVWYNSGGNLKCIDEEFVKMWENVQLPQFAELPRKLQDLGLKPASVDPATIKRQTKRVEVKKKRQRKGKITNTHMTGILKDYSHRV,soluble
13,MDASIEKRPRTRLSPQKRKLQLMEIALEVFAKRGIGRGGHADIAEIAQVSVATVFNYFPTREDLVDDVLNFVVRQYSNFLTDHIDLDLDVKTNLQTLCKEMVKLAMTDCHWLKVWFEWSASTRDEVWPLFVSTNRTNQLLIRNMFMKAMERGELCEKHDVDNMASLFHGIFYSIFLQVNRLGEQEAVYKLADSYLNMLCIYKN,soluble
14,MGSDKIHHHHHHMSDALLNAGRQTLMLELQEASRLPERLGDDFVRAANIIIHCEGKVIVSGIGKSGHIGKKIAATLASTGTPAFFVHPAEALHGDLGMIESRDVMLFISYSGGAKELDLIIPRLEDKSVALLAMTGKLHSPLGRAAKAVLDISVEREACPMHLAPTSSTVNTLMMGDALAMAVMQARGFNEEDFARSHPAGALGARLLNNVHHLMRQGDAIPQVMLATSVMDAMLELSRTGLGLVAVCDEQHVVKGVFTDGDLRRWLVGGGALTTPVSEAMTPNGITLQAQSRAIDAKELLMKRKITAAPVVDENGKLTGAINLQDFYQAGII,not soluble
15,MAAQIPIVAATSTPAVARNSKKRPASPSHNSSGGGYGASKKKKLSASGFAQGVSIEAMNESKMASSELSSGPVEKAAKPLPFKDPNFVHSGHGGAVAGKKNRTWKNLKQILAAERALPWQLNDPNYFSIDAPPSFKPAKKYSDISGLLANYTDPQSKLRFSTVEEFSYIRRLPSDVVTGYLALRKATSIVP,not soluble
16,MGHHHHHHSHSPGSASGGSREYKVVMLGAGGVGKSAMTMQFISHQFPDYHDPTIEDAYKTQVRIDNEPAYLDILDTAGQAEFTAMREQYMRGGEGFIICYSVTDRQSFQEAAKFKELIFQVRHTYEIPLVLVGNKIDLEQFRQVSTEEGLSLAQEYNCGFFETSAALRFCIDDAFHGLVREIRKKESMP,soluble
17,MITSTNKEAYPNTLIVILGHDEGRSSFEEKEDVTRVTNDKGETIGFNFFNVDKLIDFDKLPNGPVKLSDDELEALNKKLAEVGFDDKLEYGKPTLVYGYVKTCEKHPDSDHLHVTTIEVGDGEEHQIVCGAPNIAQGQKVVVALPGTLMPNGAQIWPGKLRGVDSYGMICSARELGLPHAPQKRGIMVVPDSFEVGAEFEPTKCDELIASGEITLLEHHHHHH,soluble
18,MGSDKIHHHHHHMLSTGLYEDFPTLKMKINGKRIVYLDSAATTLKPKQVVKKLEEFYYNSYANVHRAVHTLAVRATTEFEETREEFAEFLGASPEEIIFTSGTTMAINLAVVSLLRSGILKEDDLVLVSLLEHHANFVPWLRLSKFHGYRIDFIRPSGRFGTLEMDDLLKHRDKNPKVVAITGLSNVTGQRIPVEELRNVFPNSIILLDGAQLIPHEPVKPKEIGVDFLAFSLHKMLGPTGVGVLYGKREVLEQMEPFLYGGEMIDRVSLEDVTFNELPYKFEAGTPNIADIVASREALRYLKETGFDSVHEKIEQLTQMALKEMMKIGGVEIYGPLDERQHGIVSFNVKGIHPHDVAHILDQEFGIAVRSGHHCAQPLMSILKEQSQIDFPNSTCRASFYIYNTEEDVKILVEGVKKVKEWFSR,not soluble
19,MAHHHHHHMRLIESRQMHEWDNAADSSLDVDHPEDAPFGQGPERQQQRDGKSNLGDQSDYGEEARTEATWLWRFGFPRTEDEKAYVASHLWSKGLRRRVAQLTDVRRRGRPGEFVIGVPEGLQHLREQRERLERERFGGVKVFPPQNA,not soluble
20,MSASESDLAIVAEQLGREPRGVIEVSYHTPDGVPGVVMTTPKLDDGTPFPTLYYLTEPRLTAEASRLEVAHVMKWMTDRLHSDEELRQDYERAHEYFLAKRNALEDLGTDFSGGGMPDRVKCLHVLIAYALAEGPDHFRLGTEAVALAADHGGLRGTAIPQDWPTVESLGMSLDQFDFSHADVPGASK,not soluble
21,MGSDKIHHHHHHMLQNGYVPCSFRISMAGMDVEFNTKNDVIKAYLSRPDDGMRHPGIVVIHEIFGLDDHIRSVADRISREGYVALAPDLFSSHELSAKITREGILESMKFIMSIPPEKQRDDSYRNSLLNSMPEEKRRIMSSTYSALFVNRPTQLLTEYLEYAVDYLKGIGVTSVGSVGFCFGGGMSANLGCTGKVDATVIFYGENPDPIDKVKGMKSVLGLYAGEDHRITSRVPELLAKLIEFSIPVTIKVYPGAYHAFFNDTRPQIYNEAAAKDAWNMMLYFFRTQLGP,not soluble
